Read-outs that look alike come from different tables or passages of the source.
Columns and labels:
[1] = target: glutathione S-transferase (GST) tagged HIV-1 IN (HIV-1); test: AlphaScreen or HTRF
[2] = target: HIV-1 integrase fused to mVenus (IN-mVenus), transincorporated into virions as Vpr-IN-mVenus (HIV-1); test: FRET or BRET
[3] = target: HIV-1 integrase fused to mVenus (IN-mVenus), transincorporated into virions as Vpr-IN-mVenus (HIV-1); test: FRET or BRET; remark: listed apart in the source

Substance	fold lower AlphaScreen signal than wild-type IN [1]	FRET ratio (r FRET) [2]	FRET ratio (r FRET) [3]
HIV-1 IN point mutant IN(W108G)-His6 (enzyme)	4 fold		
HIV-1 integrase fused to mTFP1 (IN-mTFP1), transincorporated into virions as Vpr-IN-mTFP1 (enzyme)		1.3	1.27

Source: PMC4004294
